Source: patent US20030191054A1

Experiments:
[1] = biological target: purified recombinant BAG-1 (beginning at residue 116 of SEQ ID NO:2) (human); test: surface plasmon resonance (BIAcore), KD=Kd/Ka
[2] = biological target: purified recombinant BAG-2 (SEQ ID NO:4) (human); test: surface plasmon resonance (BIAcore), KD=Kd/Ka
[3] = biological target: purified recombinant BAG-3 (SEQ ID NO:6) (human); test: surface plasmon resonance (BIAcore), KD=Kd/Ka
[4] = biological target: purified recombinant BAG-1 (beginning at residue 116 of SEQ ID NO:2) (human); test: surface plasmon resonance (BIAcore), BAG protein immobilized
[5] = biological target: purified recombinant BAG-2 (SEQ ID NO:4) (human); test: as above
[6] = biological target: purified recombinant BAG-3 (SEQ ID NO:6) (human); test: as above

**Q.** With “Hsc70 in the soluble phase of the BIAcore assay” as the substance, how does the Kd [1] read?
**A.** 1.4 nM

**Q.** And the Kd [2]?
**A.** 2.4 nM

**Q.** What about the Kd [3] of the same substance?
**A.** 7.4 nM

**Q.** And the koff [4]?
**A.** 0.0003 s⁻¹

**Q.** And the kon [4]?
**A.** 210000 M⁻¹ s⁻¹

**Q.** What about the koff [5] of the same substance?
**A.** 0.0005 s⁻¹

**Q.** And the kon [5]?
**A.** 210000 M⁻¹ s⁻¹

**Q.** And the koff [6]?
**A.** 0.0017 s⁻¹

**Q.** What about the kon [6] of the same substance?
**A.** 240000 M⁻¹ s⁻¹
